# Reference: patent US6866997, “Nucleic acid binding proteins” (Gendaq Limited)
# B1: Zif268 consensus site (dsDNA)
# DNA 1: GCGTGGGCG
# DNA 2: CGCCCACGC
# Target: Zif268 DNA-binding domain (UniProt P08046 P08046:333-421)
# Test: apparent; text states optimised peptide Kd equals that of wild-type Zif268; curve only in FIG. 7
binder,measurement,value
B1,Kd,3 nM
